# Data taken from the RNAGym collection of RNA variant scans (doi:10.7554/elife.90254).
# B1: OR4K15 (parent)
# chain: GUUAACGGUCAUAGGCCAUGGAAACUAGGAGCACCAUUUCGCUGCCAGUGAAGAAAUGAACAAAGAAAAUCUGGGCCAGGCAGGCAUCAAAAGAAAUAGUCUUGCGCUCAACCAGAAAGUCUGUAAUCAUUUUAAGGGUA
# Variants of: B1
# Assay: self-cleavage, relative activity (ratio to wild type); higher = more cleavage; in vitro, sequencing; the parent is a self-cleaving ribozyme
row,Variant,self-cleavage
1,U26C U87C,0.37
2,A27G U87A,1.39
3,A27G U87C,1.02
4,U26C G84A,1.84
5,A24G C35U,1.12
6,A27C A67U,1.29
7,U26A U72A,0.28
8,A27G A54U,1.03
9,A24G U133A,1.18
10,A24G U133C,1.14
11,A24G A64G,1.01
12,U26C A55G,0.31
13,A27G U122C,1.45
14,A27G U122A,1.47
15,U26C A114U,0.07
16,A27G U49C,2.01
17,A27G U49A,0.93
18,A24C A64G,1.74
19,A24G U131C,1.17
20,A24G U131G,1.61
21,A24C A125U,2.07
22,A24G C105A,0.02
23,C25U A47G,1.76
24,A24C A56G,2.01

row,Variant,self-cleavage
1,A27G A33G,0.96
2,A27G A33U,1.16
3,A24C U130C,0.42
4,A27C A33U,2.06
5,U26C A67G,1.81
6,U26G A63G,2.09
7,A24G A69G,1.31
8,C25G A30G,0.59
9,U26C C77U,1.77
10,C25U A135G,1.44
11,C25U A89G,1.27
12,A27G A51G,1.3
13,A27G A96U,1.83
14,C25A U38C,1.05
15,A24G A82G,0.67
16,A24G A82C,0.25
17,U26C A51C,1.55
18,U26C A51U,1.69
19,C25U U72A,0.28
20,A24U A86G,1.8
21,A24G A62U,1.12
22,A24G A62G,1.27
23,A24G A47G,0.73
24,A24G U49G,0.9

row,Variant,self-cleavage
1,A24G U49A,1.37
2,A24G U49C,1.37
3,U26A U57G,0.97
4,C25U G136A,1.84
5,A27G A94G,1.48
6,C25U A66C,1.33
7,U26C A82U,0.28
8,A27C G75C,0.12
9,C25G U108C,0.03
10,C25U A67G,1.55
11,A27G U72C,0.38
12,A24C U87C,1.44
13,U26C A110G,0.08
14,U26C A110C,0.25
15,A24U G123A,1.3
16,A24C A62C,2.03
17,A27G G79A,0.15
18,A24G U72A,0.28
19,A24G U72G,0.26
20,A24U U132C,2.18
21,C25U U70C,0.35
22,A24C A59U,1.57
23,A24U A82G,0.41
24,A24G A67U,1.32

row,Variant,self-cleavage
1,A24G A134G,0.94
2,A24G A51C,0.87
3,U26C U108C,0.01
4,A27G A69G,0.62
5,C25U A129G,1.37
6,A24U A116U,0.51
7,U26C U43C,0.54
8,A24G A91G,0.65
9,A24C A114G,0.97
10,U26C A126U,1.29
11,C25A U122C,0.72
12,U26C A89G,1.35
13,C25U A114G,0.37
14,U26A A27G,0.9
15,A24C G123A,1.91
16,U26C A116G,1.14
17,A27C A78G,0.21
18,U26C A36G,1.47
19,A24U A33G,1.14
20,U26C A96G,1.5
21,A27U A30G,0.38
22,A24G A116U,0.46
23,U26C A140G,1.4
24,U26A A129G,1.36

row,Variant,self-cleavage
1,A24G G29U,1.2
2,U26C U100C,1.45
3,A24G U124C,0.73
4,A24G U124A,0.74
5,A24U U100C,2.08
6,A27U A36G,1.64
7,A24G U103C,0.32
8,A24G U103A,0.42
9,C25U U57C,1.42
10,A24G A94G,1.47
11,A24G A126G,0.83
12,U26C A69G,1.46
13,C25U U102A,0.79
14,A24U U26C,2.46
15,A24U U26A,1.57
16,A27G U120C,0.68
17,A24G U39C,1.35
18,U26C U39A,1.13
19,A27G A134G,1.86
20,A24G A33U,1.73
21,A24G A33G,0.85
22,A24G U139G,1.86
23,A24G U139A,1.53
24,A24G U139C,0.99

row,Variant,self-cleavage
1,A24U A78C,0.29
2,A24G G84C,0.53
3,A24U C128A,1.85
4,A24G U57G,0.4
5,A27G G53C,1.59
6,A27C U87A,1.13
7,A24G A96G,1.2
8,U26C U131C,1.04
9,A24C U37C,1.29
10,U26C A59G,0.96
11,U26C C46U,0.81
12,U26A U43C,1.45
13,U26A U39A,0.92
14,A24U A118G,0.99
15,U26A A91G,1.38
16,U26A A51G,1.15
17,C25U A86C,0.72
18,A24U A27U,1.14
19,A27G A86G,1.4
20,A27G A86U,1.34
21,A27G A36G,1.26
22,U26C U103A,0.24
23,U26C U103C,0.69
24,A27G A114G,0.27

row,Variant,self-cleavage
1,U26A U132C,0.9
2,U26C A54G,1.61
3,U26C A56G,1.43
4,U26A A69G,1.5
5,A27G U133G,2.02
6,A24G A125C,0.4
7,C25U C109U,0.48
8,C25U U132C,1.36
9,A24G A55G,0.67
10,A24C A96G,1.72
11,A24G A52G,1.44
12,A27G G48U,0.5
13,U26C U122C,0.7
14,U26A U102C,1.69
15,A24U A51G,1.78
16,A24U A51U,1.61
17,U26C G136A,2.02
18,A24C A95U,2.22
19,C25U A63G,0.37
20,C25U A54U,1.33
21,A24G A89C,1.51
22,A24G A59U,0.51
23,U26A C34U,1.99
24,U26G A62G,1.02

row,Variant,self-cleavage
1,U26A G115U,0.13
2,A27G A82U,0.27
3,C25U A110U,0.57
4,U26C A68G,1.26
5,A24C U120C,1.13
6,A24G A56U,0.97
7,A24G A56G,1.25
8,A24G A56C,1.02
9,A24C C40A,1.99
10,A27G U127C,0.56
11,A27G U127A,1.58
12,A27C A69G,1.34
13,A24G A30U,1.29
14,U26A C105A,0.02
15,A24G A36C,1.51
16,C25U U87C,1.11
17,A27G A78G,0.3
18,U26A A92G,0.89
19,A24G A92G,1.19
20,U26C A63G,1.48
21,U26C A118C,0.51
22,C25U U127C,0.57
23,A24U A135U,0.83
24,A24G U70A,1.17

row,Variant,self-cleavage
1,U26C U139A,1.49
2,A24C U70G,0.73
3,U26C A27G,0.75
4,U26C A27U,1.2
5,A24G G74A,0.31
6,U26A G44C,0.71
7,A24G U132A,0.48
8,A24G U132C,1.31
9,U26A C81U,0.19
10,C25U A62G,0.59
11,A27G A68G,1.13
12,A24U A90G,1.63
13,A24G G58U,1.92
14,C25G A118G,0.35
15,A24G U127C,0.74
16,A24G G73A,0.29
17,U26C A62U,1.84
18,A24G A129G,1.15
19,A27G A64G,1.27
20,C25G A59G,0.57
21,C25U A111G,0.09
22,A24G A95G,1.71
23,A27G U103C,0.76
24,A27C A116U,0.23

row,Variant,self-cleavage
1,A24G A54G,1.12
2,A27G A92U,1.07
3,A27G A92G,1.48
4,A27G U102A,0.63
5,A24G U97C,0.1
6,U26A U120G,1.26
7,A27G A116G,0.99
8,A24C U103C,1.38
9,A24G C81U,0.64
10,A24G C81G,0.21
11,U26C G44A,1.07
12,A24U A91G,1.09
13,U26A U130C,0.54
14,A24U A66G,1.66
15,A27G U139A,1.27
16,A24G A90U,1.65
17,A24G A90C,0.33
18,U26C U120C,0.85
19,A24C A63G,1.94
20,A24G G83A,0.98
21,A27U A64U,2.21
22,A24G A114C,0.05
23,A24G A114G,0.44
24,U26C A134G,1.05

row,Variant,self-cleavage
1,A24G A86C,0.43
2,A24G A86U,1.44
3,A24U A55G,1.53
4,U26C A90G,1.11
5,A24C A91G,1.24
6,A27G A66G,0.7
7,A27G A90U,1
8,A24C U133A,1.76
9,A24G A135U,1.33
10,A24G A135G,1.67
11,A24C A69G,1.24
12,C25A A56G,1.41
13,A24C A118C,0.84
14,A27G A63G,1.49
15,A27G A60G,1.09
16,A24G U26A,0.98
17,A27G A111G,0.03
18,U26A A54G,1.95
19,U26C U132A,0.61
20,U26A A98G,0.3
21,A24G C109U,0.46
22,A24G C109A,0.3
23,A24C A111G,0.01
24,U26G A96G,1.78

row,Variant,self-cleavage
1,A27G G28A,0.78
2,A27U A63G,2.61
3,A24G A60U,1.08
4,A24C A90G,0.69
5,C25G A27U,1.45
6,A24G C34U,1.69
7,A24U A98G,0.45
8,A24C A66U,1.03
9,A24C U122C,1.49
10,U26A A96G,1.39
11,A24U U57C,0.73
12,U26C A86C,0.7
13,U26C A86U,1.52
14,U26C A86G,1.33
15,A24G G104U,0.01
16,A27G A67G,1.25
17,C25U U120A,2.95
18,A24C A55G,1.52
19,U26A A47G,0.94
20,U26A A59U,1.22
21,U26A U100A,0.98
22,A24C A117G,0.83
23,A24G C46U,0.73
24,A24C U132C,1.46

row,Variant,self-cleavage
1,A27U A59G,0.92
2,U26G A66G,1.09
3,A27G A47U,0.95
4,A27G A30G,0.69
5,U26A A114G,0.2
6,A27G U39A,1.42
7,A27G U39C,1.14
8,C25U A55G,1.72
9,A24G A111G,0.03
10,A24U A36C,1.63
11,A24G G65U,1.3
12,A24G A27G,0.97
13,A24G A27C,0.55
14,U26C A30C,0.98
15,U26C A30U,1.14
16,A27G U130C,0.63
17,A24G A110G,0.17
18,A24G A110C,0.55
19,A27G A129U,0.72
20,U26C U130C,0.3
21,A24U A54G,1.46
22,A27G U131C,1.67
23,A24G A68U,0.87
24,A24U U87A,1.8

row,Variant,self-cleavage
1,A27G U38C,1.12
2,U26G A52C,0.7
3,C25U A91U,1.13
4,A24G A140G,1.4
5,A24G A140U,0.89
6,U26C A92G,1.45
7,A24G C128U,0.76
8,A24G U122G,2.31
9,A27G A95U,1.2
10,A27U A52G,1.91
11,U26C U102C,1.65
12,A24G A98C,1.76
13,A24C A98G,0.56
14,A27G C105U,0.24
15,C25U A59G,1.24
16,C25U U131C,1.57
17,A24U U43A,1.68
18,C25A A36G,1.03
19,U26C A60G,1.61
20,A27G A52C,1.41
21,A24U U102C,1.26
22,A24U A110G,0.13
